Numbered stars: 1 amine (or outer) side, 2 acyl side, 3 side chain; on linkers, the order of the positions; unused ones are H or OH. Square brackets hold non-standard residues; d marks the D form. Side chains are listed from the residue outwards. Ends that are not written are not given here. * marks the point of attachment. γGlu = O=C(O)[C@H](CCC(=O)[*:2])N[*:1]; Palmitoyl = CCCCCCCCCCCCCCCC(=O)*; Myristoyl = CCCCCCCCCCCCCC(=O)*; NMeA = CN[C@@H](C)C(=O)O
T1: rat PrRP receptor in RC-4B/C cells (rat, UniProt Q64121 1-370)
T1 construct: whole, on cells; endogenous receptor of RC-4B/C cells (ATCC); also called rat receptor; GPR10 receptor expressed in rat hypophyseal cells
T1 sequence (looked up): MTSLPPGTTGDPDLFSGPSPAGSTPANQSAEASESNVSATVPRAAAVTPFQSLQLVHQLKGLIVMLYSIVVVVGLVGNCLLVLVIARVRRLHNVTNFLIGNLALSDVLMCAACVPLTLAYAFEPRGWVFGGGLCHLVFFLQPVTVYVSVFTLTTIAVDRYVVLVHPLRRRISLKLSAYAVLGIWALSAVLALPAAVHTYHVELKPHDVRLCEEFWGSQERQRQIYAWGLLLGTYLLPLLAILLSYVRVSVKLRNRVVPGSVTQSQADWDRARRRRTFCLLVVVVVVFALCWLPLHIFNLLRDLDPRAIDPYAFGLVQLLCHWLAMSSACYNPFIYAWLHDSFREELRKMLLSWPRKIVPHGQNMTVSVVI

T2: human PrRP receptor GPR10 (human, UniProt P49683 1-370)
T2 construct: whole, on cells; also called GPR10 human receptor transfected in CHO cells; human GPR10 receptor
T2 sequence (looked up): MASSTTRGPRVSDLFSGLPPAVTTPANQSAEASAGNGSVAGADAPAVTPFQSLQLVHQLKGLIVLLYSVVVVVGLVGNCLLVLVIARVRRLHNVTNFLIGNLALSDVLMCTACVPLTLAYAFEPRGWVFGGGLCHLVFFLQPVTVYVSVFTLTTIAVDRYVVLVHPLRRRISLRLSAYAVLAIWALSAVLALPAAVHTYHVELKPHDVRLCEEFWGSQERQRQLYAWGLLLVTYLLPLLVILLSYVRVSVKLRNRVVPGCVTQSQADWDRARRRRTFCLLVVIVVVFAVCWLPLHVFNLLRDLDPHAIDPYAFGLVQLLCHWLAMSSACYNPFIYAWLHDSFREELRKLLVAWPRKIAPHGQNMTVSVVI

B1: analog no. 29 (peptide)
peptide: TPDINPAWY[NMeA]SRGIRPVGRF-NH2
modifications: N-terminus assumed
SMILES: CC[C@H](C)[C@H](NC(=O)CNC(=O)[C@H](CCCNC(=N)N)NC(=O)[C@H](CO)NC(=O)[C@H](C)N(C)C(=O)[C@H](Cc1ccc(O)cc1)NC(=O)[C@H](Cc1c[nH]c2ccccc12)NC(=O)[C@H](C)NC(=O)[C@@H]1CCCN1C(=O)[C@H](CC(N)=O)NC(=O)[C@@H](NC(=O)[C@H](CC(=O)O)NC(=O)[C@@H]1CCCN1C(=O)[C@@H](N)[C@@H](C)O)[C@@H](C)CC)C(=O)N[C@@H](CCCNC(=N)N)C(=O)N1CCC[C@H]1C(=O)N[C@H](C(=O)NCC(=O)N[C@@H](CCCNC(=N)N)C(=O)N[C@@H](Cc1ccccc1)C(N)=O)C(C)C
B2: analog no. 30 (peptide)
peptide: Myristoyl-TPDINPAWY[NMeA]SRGIRPVGRF-NH2
SMILES: CCCCCCCCCCCCCC(=O)N[C@H](C(=O)N1CCC[C@H]1C(=O)N[C@@H](CC(=O)O)C(=O)N[C@H](C(=O)N[C@@H](CC(N)=O)C(=O)N1CCC[C@H]1C(=O)N[C@@H](C)C(=O)N[C@@H](Cc1c[nH]c2ccccc12)C(=O)N[C@@H](Cc1ccc(O)cc1)C(=O)N(C)[C@@H](C)C(=O)N[C@@H](CO)C(=O)N[C@@H](CCCNC(=N)N)C(=O)NCC(=O)N[C@H](C(=O)N[C@@H](CCCNC(=N)N)C(=O)N1CCC[C@H]1C(=O)N[C@H](C(=O)NCC(=O)N[C@@H](CCCNC(=N)N)C(=O)N[C@@H](Cc1ccccc1)C(N)=O)C(C)C)[C@@H](C)CC)[C@@H](C)CC)[C@@H](C)O
B3: analog no. 1 (peptide)
peptide: Myristoyl-TPDINPAWYTGRGIRPVGRF-NH2
SMILES: CCCCCCCCCCCCCC(=O)N[C@H](C(=O)N1CCC[C@H]1C(=O)N[C@@H](CC(=O)O)C(=O)N[C@H](C(=O)N[C@@H](CC(N)=O)C(=O)N1CCC[C@H]1C(=O)N[C@@H](C)C(=O)N[C@@H](Cc1c[nH]c2ccccc12)C(=O)N[C@@H](Cc1ccc(O)cc1)C(=O)N[C@H](C(=O)NCC(=O)N[C@@H](CCCNC(=N)N)C(=O)NCC(=O)N[C@H](C(=O)N[C@@H](CCCNC(=N)N)C(=O)N1CCC[C@H]1C(=O)N[C@H](C(=O)NCC(=O)N[C@@H](CCCNC(=N)N)C(=O)N[C@@H](Cc1ccccc1)C(N)=O)C(C)C)[C@@H](C)CC)[C@@H](C)O)[C@@H](C)CC)[C@@H](C)O
B4: analog no. 32 (peptide)
peptide: Myristoyl-TPDINPAWYTGRGARPFGRF-NH2
SMILES: CCCCCCCCCCCCCC(=O)N[C@H](C(=O)N1CCC[C@H]1C(=O)N[C@@H](CC(=O)O)C(=O)N[C@H](C(=O)N[C@@H](CC(N)=O)C(=O)N1CCC[C@H]1C(=O)N[C@@H](C)C(=O)N[C@@H](Cc1c[nH]c2ccccc12)C(=O)N[C@@H](Cc1ccc(O)cc1)C(=O)N[C@H](C(=O)NCC(=O)N[C@@H](CCCNC(=N)N)C(=O)NCC(=O)N[C@@H](C)C(=O)N[C@@H](CCCNC(=N)N)C(=O)N1CCC[C@H]1C(=O)N[C@@H](Cc1ccccc1)C(=O)NCC(=O)N[C@@H](CCCNC(=N)N)C(=O)N[C@@H](Cc1ccccc1)C(N)=O)[C@@H](C)O)[C@@H](C)CC)[C@@H](C)O
B5: analog no. 34 (peptide)
peptide: Myristoyl-TPDINPAWYASRPFRPVGRF-NH2
SMILES: CCCCCCCCCCCCCC(=O)N[C@H](C(=O)N1CCC[C@H]1C(=O)N[C@@H](CC(=O)O)C(=O)N[C@H](C(=O)N[C@@H](CC(N)=O)C(=O)N1CCC[C@H]1C(=O)N[C@@H](C)C(=O)N[C@@H](Cc1c[nH]c2ccccc12)C(=O)N[C@@H](Cc1ccc(O)cc1)C(=O)N[C@@H](C)C(=O)N[C@@H](CO)C(=O)N[C@@H](CCCNC(=N)N)C(=O)N1CCC[C@H]1C(=O)N[C@@H](Cc1ccccc1)C(=O)N[C@@H](CCCNC(=N)N)C(=O)N1CCC[C@H]1C(=O)N[C@H](C(=O)NCC(=O)N[C@@H](CCCNC(=N)N)C(=O)N[C@@H](Cc1ccccc1)C(N)=O)C(C)C)[C@@H](C)CC)[C@@H](C)O
B6: analog no. 42 (peptide)
peptide: Myristoyl-SRTHRHSMEIRTPDINPAWYASRGIRPVGRF-NH2
SMILES: CCCCCCCCCCCCCC(=O)N[C@@H](CO)C(=O)N[C@@H](CCCNC(=N)N)C(=O)N[C@H](C(=O)N[C@@H](Cc1c[nH]cn1)C(=O)N[C@@H](CCCNC(=N)N)C(=O)N[C@@H](Cc1c[nH]cn1)C(=O)N[C@@H](CO)C(=O)N[C@@H](CCSC)C(=O)N[C@@H](CCC(=O)O)C(=O)N[C@H](C(=O)N[C@@H](CCCNC(=N)N)C(=O)N[C@H](C(=O)N1CCC[C@H]1C(=O)N[C@@H](CC(=O)O)C(=O)N[C@H](C(=O)N[C@@H](CC(N)=O)C(=O)N1CCC[C@H]1C(=O)N[C@@H](C)C(=O)N[C@@H](Cc1c[nH]c2ccccc12)C(=O)N[C@@H](Cc1ccc(O)cc1)C(=O)N[C@@H](C)C(=O)N[C@@H](CO)C(=O)N[C@@H](CCCNC(=N)N)C(=O)NCC(=O)N[C@H](C(=O)N[C@@H](CCCNC(=N)N)C(=O)N1CCC[C@H]1C(=O)N[C@H](C(=O)NCC(=O)N[C@@H](CCCNC(=N)N)C(=O)N[C@@H](Cc1ccccc1)C(N)=O)C(C)C)[C@@H](C)CC)[C@@H](C)CC)[C@@H](C)O)[C@@H](C)CC)[C@@H](C)O
B7: analog no. 54 (peptide)
peptide: SRTHRHSMEIRTPDINPAWYASRGIRPVGRF
modifications: (N-palm)γ-E at the N-terminus (palmitoyl through gamma-glutamic acid); C-terminal amide

Columns and labels:
[1] = target: T1, rat PrRP receptor in RC-4B/C cells; assay: competition with 125I-rat PrRP31, RC-4B/C cells
Procedure: The rat pituitary cell line RC-4B/C (ATCC, Manassas, USA) was grown on 24-well plates which had their bottom coated with polyethyleneimine. The cells were grown to the optimal density of 300-450 thousand cells per well.
(§1) Plates were incubated for 60 minutes at room temperature. After incubation, the cells were solubilized in 0.1 mol/l solution of NaOH, and the radioactivity bound to the cells was counted using a γ-counter. The experiments were performed in duplicate, and repeated at least three times.

[2] = target: T2, human PrRP receptor GPR10; assay: competition with 125I-human PrRP31, CHO cells with human GPR10
Procedure: CHO cells transfected with human PrRP receptor GPR10 (Perkin Elmer, USA) were grown on 24-well plates coated with polyethyleneimine. […] The following agents were used for the experiment: binding buffer (25 mmol.1⁻¹ Tris, pH 7.4; 118 mmol.1⁻¹ NaCl, 10 mmol.1⁻¹ MgCl₂, 1 mmol.1⁻¹ CaCl₂, 5.5 mmol.1⁻¹ glucose, 0.5 mg/ml BSA), unlabeled analogs of PrRP (i.e. the analog being tested) at a final concentration between 10⁻¹¹ to 10⁻⁴ mol.1⁻¹, and radiolabeled human ¹²⁵1-PrRP31 at a final concentration of 5×10⁻¹¹ mol.1⁻¹.
as §1

| Binder | % of PrRP31 [1] [%] | Ki [1] [nM] | % of PrRP31 [2] [%] | Ki [2] [nM] |
| --- | --- | --- | --- | --- |
| B1 | 10 | 49.4 | 45 | 8.72 |
| B2 | 1070 | 0.46 | 185 | 2.1 |
| TPDINPAWYTGRGIRPVGRF-NH2 (synthetic peptide) [Rat PrRP20] | 143 | 3.44 | 70 | 5.56 |
| B3 | 632 | 0.78 | 133 | 2.93 |
| TPDINPAWYTGRGARPFGRF-NH2 [analog no. 31] | 0.8 | 655 | 0.7 | 583 |
| B4 | 68 | 7.21 | 46 | 8.47 |
| TPDINPAWYASRPFRPVGRF-NH2 [analog no. 33] | 230 | 2.14 | 225 | 1.73 |
| B5 | 587 | 0.84 | 671 | 0.58 |
| SRTHRHSMEIK([γGlu-Palmitoyl])TPDINPAWYASRGIRPVGRF-NH2 (also called compound 52) [analog no. 52] | 57 | 4.23 | 65 | 5.95 |
| SRTHRHSMEIRTPDINPAWYASRGIRPVGRF-NH2 (synthetic peptide) [Human PrRP31] | 207 | 2.38 | 86 | – |
| B6 | 1030 | 0.48 | 83 | – |
| B7 | 119 | 0.5 | 57 | – |
| SETHRHSMEIKTPDINPAWYASRGIRPVGRF (K(N-POE(N-palm)) at residue 11; C-terminal amide) [analog no. 58] | 575 | 0.41 | 103 | 3.79 |
| Palmitoyl-SRTHRHSMEIRTPDINPAWYASRGIRPVGRF-NH2 (also called analog no; 43; compound 43) [palm-PrRP31 (analog 43)] | 519 | 0.95 | 90 | – |
